Where only a bound is given, the exact number is not on record here.

In test [1] the target is Recombinant trimeric Ad5 knob protein with an N-terminal 6-His tag (adenovirus type 5 (Ad5)) (UniProt P11818). Briefly: ELISA on His-tagged Ad5 knob on Ni-NTA strips, detection with anti-FGF2 antibody and anti-rabbit HRP; control. On the technique in general: An ELISA detects its analyte on a solid surface through an enzyme-linked reagent.
In a further test the target is FGF receptors. Briefly: cell-based or functional assay.
For test [2], the target named is Recombinant trimeric Ad5 knob protein with an N-terminal 6-His tag (adenovirus type 5 (Ad5)) (UniProt P11818). Briefly: ELISA on His-tagged Ad5 knob on Ni-NTA strips, detection with anti-FGF2 antibody and anti-rabbit HRP; wells without knob gave 0.35+0.04.
Test [3] addresses recombinant Ad5 knob (knob domain of the adenovirus type 5 fiber protein) (adenovirus type 5 (Ad5)) (UniProt P11818). Briefly: Biacore analysis.
For test [4], the target named is adenoviral fiber knob on AdCMVLuc (Ad5 vector) virions (adenovirus type 5 (Ad5)) (UniProt P11818). Briefly: cell-based or functional assay.

As to “FGF2 mutein (C96S) (from UniProt P09038 1-155) (ligand)”, the absorbance in test [1] is 1.55 absorbance.

In the test with FGF receptors, “Fab-FGF2 conjugate (1D6.14 Fab chemically conjugated to FGF2 C96S mutein) (from UniProt P09038 1-155)” came in with an inhibition by anti-FGF2 antibody of infection by the Ad-Fab-FGF2 complex (luciferase), 3T3 cells of 96.1%; an inhibition by anti-FGF2 antibody of infection by the Ad-Fab-FGF2 complex (luciferase), D54 MG cells of 94%; an inhibition by anti-FGF2 antibody of infection by the Ad-Fab-FGF2 complex (luciferase), PANC-1 cells of 96.3%; an inhibition by anti-FGF2 antibody of infection by the Ad-Fab-FGF2 complex (luciferase), SKOV3.1p1 cells of 90.1%. In test [2], the absorbance amounted to 3.7 absorbance.

For orientation: Kd means the constant that tells how readily two partners part at equilibrium. As for “Fab fragment of 1D6.14 anti-Ad5 knob neutralizing antibody”, the dissociation constant (Kd) in test [3] is 2.1 nM. In test [4], this substance returned a block of AdCMV-Luc transduction (luciferase), CVU-1 cells of 20%; a block of AdCMV-Luc transduction (luciferase), KS-SLK cells of more than 50%; a block of AdCMV-Luc transduction (luciferase), KSY-1 cells of more than 50%; a block of AdCMV-Luc transduction (luciferase), RW376 cells of more than 50%. In test [4], this substance came in with an inhibition of AdCMVLuc infection (luciferase), 3T3 cells of 97%; an inhibition of AdCMVLuc infection (luciferase), D54 MG cells of 98.3%; an inhibition of AdCMVLuc infection (luciferase), PANC-1 cells of 98.8%; an inhibition of AdCMVLuc infection (luciferase), SKOV3.1p1 cells of 69.3%. The inhibition of AdCMVLuc transfection (luciferase), HUVECs in test [4] is 87%.
